Data set [1] concerns the molecule itself. Nature of the data set: AUC in detergent solution (C8E5); self-association to homodimer. How it is done: The dimer design with the shortest hydrophobic span (15 residues, TMHC2_S) was poorly behaved in both E. coli and mammalian cells, but the dimer designs with longer spans TMHC2, TMHC2_E and TMHC2_L localized to the cell membrane when expressed in HEK293T cells (data not shown) and in E. coli. The designed proteins were purified by extracting the E. coli membrane fraction with detergent, followed by nickel-NTA chromatography and size exclusion chromatography (SEC) with a yield of ˜2 mg/L (FIG. 6A-B). […] For the single chain scTMHC2 the major species in SEC was the monomer with a small side peak that was readily removed by purification (FIG. 6B).
Analytical ultracentrifugation (sedimentation velocity and sedimentation equilibrium) experiments were carried out using a Beckman XL-I analytical ultracentrifuge (Beckman Coulter) equipped with an eight-cell An-50 Ti rotor. The proteins were run in 20 mM sodium phosphate, pH 7.0, containing 200 mM NaCl supplemented with 0.5% C8E5, no density matching was necessary and the solvent density was calculated as 1.0075 g mL⁻¹. The partial specific volume of the protein was calculated by the program Sednterp™ (37). For sedimentation velocity, absorbance at 230 nm versus radial location was recorded during centrifugation at 50,000 rpm at 20° C. […] The data of sedimentation velocity and sedimentation equilibrium were analyzed using Sedfit™ and Sedphat™.

Data set [2] concerns the molecule itself. Nature of the data set: AUC in detergent solution; self-association to homotrimer. The text has this: We used a similar approach to design a transmembrane trimer with six membrane spanning helices (TMHC3) based on the 5L6HC3_1 scaffold (PDB ID: 5IZS). Guided by the results with the C2 designs, we chose a hydrophobic span of ˜30 Å (20 residues) (FIG. 4A). The design was expressed in E. coli and purified to homogeneity, eluting on a gel filtration column as a single homogeneous species (FIG. 5C).
Analytical ultracentrifugation (sedimentation velocity and sedimentation equilibrium) experiments were carried out using a Beckman XL-I analytical ultracentrifuge (Beckman Coulter) equipped with an eight-cell An-50 Ti rotor. The proteins were run in 20 mM sodium phosphate, pH 7.0, containing 200 mM NaCl supplemented with 0.5% C8E5, no density matching was necessary and the solvent density was calculated as 1.0075 g mL⁻¹. The partial specific volume of the protein was calculated by the program Sednterp™ (37). For sedimentation velocity, absorbance at 230 nm versus radial location was recorded during centrifugation at 50,000 rpm at 20° C. For sedimentation equilibrium, data were collected by UV detector at 20° C. for at least two protein concentrations at three rotor speeds. The data of sedimentation velocity and sedimentation equilibrium were analyzed using Sedfit™ and Sedphat™.

B1: TMHC2 (transmembrane hairpin C2) (designed binder)
chain: MTRTEIIRELERSLRLQLVLAIFLMALLIVLLWLQQNGSSNNNVNYLLIVILVLVLVIVALAVTQKYLVEQLKRQD
notes: De novo designed two-helix transmembrane hairpin, entered here as one protomer; It was expressed from pET-28b with an N-terminal hexa-histidine tag and a thrombin site
For the protein B1, the binding result in data set [1] was “binds”.

B2: TMHC3 (designed binder)
chain: MSEELRAVADLQRLNIELARKLLIAVALLQLLNILLVMLTSELTDEKTILWMIVIVMFLSLAIVIVALREIRRAKEESRKIADESR
notes: De novo designed hairpin, entered as one protomer; It self-associates into a homotrimer with six TM helices; also called designed transmembrane trimer TMHC3; not shown: C-terminal hexa-histidine tag from pET-29b (gene without stop codon, NdeI/XhoI)
On to B2, for which, in data set [2], the binding result is listed as “binds”.
